This passage reports Kd results from PMC4059916.

This experiment deals with VARP451-640His6 Q509A (human) (UniProt Q96NW4). The experiment in a line: ITC; Nano ITC; VARP constructs at 60 μM in the cell at 4°C, Rab constructs at 300 μM titrated, 24 injections of 2 μl; 50 mM HEPES pH 7.4, 200 mM NaCl, 5 mM MgCl2, 1 mM TCEP.
VARP451-640His6 Q509A (human), sequence (Q96NW4 451-640 Q509A): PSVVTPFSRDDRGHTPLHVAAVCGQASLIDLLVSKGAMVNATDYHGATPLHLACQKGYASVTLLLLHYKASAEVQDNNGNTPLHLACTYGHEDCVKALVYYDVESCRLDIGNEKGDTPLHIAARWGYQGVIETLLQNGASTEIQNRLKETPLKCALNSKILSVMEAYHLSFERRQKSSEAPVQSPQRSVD

On to “Rab32 1-225 (Q85L), GTP hydrolysis-defective mutant, GST removed (from UniProt Q13637 1-225) (enzyme)”, for which the Kd came to 30 µM.
